Source: patent publication US20260056186A1 (JIANGSU HENGRUI PHARMACEUTICALS, published 2026)

T1: IFNAR1 (human, UniProt P17181 28-557)
T1 sequence (looked up): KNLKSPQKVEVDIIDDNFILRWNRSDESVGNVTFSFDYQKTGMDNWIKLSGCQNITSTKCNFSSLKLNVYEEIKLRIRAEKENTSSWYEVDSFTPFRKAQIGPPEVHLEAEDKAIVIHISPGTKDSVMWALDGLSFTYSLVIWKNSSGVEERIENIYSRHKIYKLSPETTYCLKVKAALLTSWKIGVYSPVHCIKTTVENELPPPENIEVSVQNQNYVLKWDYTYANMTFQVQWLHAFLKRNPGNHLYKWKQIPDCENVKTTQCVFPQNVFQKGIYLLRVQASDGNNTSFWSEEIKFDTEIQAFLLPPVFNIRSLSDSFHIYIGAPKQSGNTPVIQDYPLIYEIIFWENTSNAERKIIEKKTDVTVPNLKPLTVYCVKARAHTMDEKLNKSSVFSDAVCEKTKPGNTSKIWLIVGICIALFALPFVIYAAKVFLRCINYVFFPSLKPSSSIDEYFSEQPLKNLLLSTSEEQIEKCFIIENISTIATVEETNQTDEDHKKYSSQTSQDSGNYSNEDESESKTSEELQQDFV

T2: recombinant human APRIL (R&D cat: 5860-AP-010/CF) (human, UniProt O75888 105-250, limits assumed)
T2 sequence (looked up): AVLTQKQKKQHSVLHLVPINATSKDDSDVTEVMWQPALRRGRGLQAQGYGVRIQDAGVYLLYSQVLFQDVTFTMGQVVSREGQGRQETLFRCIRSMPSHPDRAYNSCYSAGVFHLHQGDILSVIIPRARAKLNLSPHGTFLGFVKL

T3: APRIL (Acro Biosystems, Cat: APL-H52D1) (UniProt O75888 115-250, limits assumed)
T3 construct: also called ARPIL
T3 sequence (looked up): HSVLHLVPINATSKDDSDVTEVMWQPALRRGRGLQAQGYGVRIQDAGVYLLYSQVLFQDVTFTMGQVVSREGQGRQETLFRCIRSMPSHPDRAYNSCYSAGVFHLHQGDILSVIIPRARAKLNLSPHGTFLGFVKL


Experiments:
IFNAR1 [1] = target: T1, IFNAR1; test: cell-based or functional assay
IFNAR1 [2] = target: T1, IFNAR1; test: cell-based or functional assay; remark: listed apart in the source
[3] = target: T4, recombinant human BAFF (R&D cat: 7537-BF-025/CF) (human, UniProt Q9Y275 134-285); test: cell-based or functional assay
[4] = target: T2, recombinant human APRIL (R&D cat: …); test: cell-based or functional assay
[5] = target: T3, APRIL (Acro Biosystems, Cat: APL-H52D1); test: ELISA, APRIL coated; reference telitacicept
[6] = target: T3, APRIL (Acro Biosystems, Cat: APL-H52D1); test: ELISA, APRIL coated at 1 ug/mL, anti-human Fc-HRP, OD450
Procedure: The capabilities of fusion proteins B606401, B637302, B746201, and B805201 to bind to BAFF and APRIL were assessed by ELISA as follows:
BAFF (PeproTech, Cat: 310-13) or ARPIL (Acro Biosystems, Cat: APL-H52D1) was diluted to 1 μg/mL with PBS, and a 96-well plate was coated with the dilution overnight at 4° C. The plate was washed with PBST and blocked with Blocking Buffer (PBST containing 1% BSA) at 37° C. for 1 h. The plate was tapped. The test antibodies were diluted with Blocking Buffer. Incubation was performed at 37° C. for 1.5 h. The plate was washed with PBST. An HRP-mouse anti-human Fc antibody (GenScript, Cat: A01854-200) was diluted with Blocking Buffer. Incubation was performed at 37° C. for 40 min. The plate was washed with PBST. 100 μL of TMB substrate solution (Biopanda, Cat: TMB-S-003) was added, and color development was performed at 37° C. for 3 min. 100 μL of ELISA stop solution (Solarbio, Cat: C1058) was added. OD450 was measured.

[7] = target: T4, recombinant human BAFF (R&D cat: …); test: cell-based or functional assay; remark: listed apart in the source

Row | IC50, inhibition of IFN-alpha-induced in vitro differentiation of B cells into plasma cells (CD27+ CD38+) (IFNAR1 [1]) [nM] | IC50 (nM), inhibition of the activity of type I interferons (IFN-beta, HEK-Blue IFN-alpha/beta reporter cells) (IFNAR1 [2]) [nM] | CD27+ CD38+ plasma cell count, mean value, BAFF + APRIL-induced (both ligands together), drug at 100 nM (IgG1: 2496) [3] [cells] | CD27+ CD38+ plasma cell count, mean value, BAFF + APRIL-induced (both ligands together), drug at 1000 nM (IgG1: 2279) [3] [cells] | CD27+ CD38+ plasma cell count, mean value, BAFF + APRIL-induced (both ligands together), drug at 10 nM (IgG1: 2687) [4] [cells] | CD27+ CD38+ plasma cell count, mean value, BAFF + APRIL-induced (both ligands together), drug at 100 nM (IgG1: 2496) [4] [cells] | CD27+ CD38+ plasma cell count, mean value, BAFF + APRIL-induced (both ligands together), drug at 1000 nM (IgG1: 2279) [4] [cells] | EC50 relative to telitacicept [5] [fold] | EC50 [6] [nM] | Emax [6] | Flow cytometry proliferating B cell proportion (%), mean value, BAFF-induced, drug at 10 nM (IgG1: 40.15) [7] [%] | Flow cytometry proliferating B cell proportion (%), mean value, BAFF-induced, drug at 100 nM (IgG1: 40.60) [7] [%] | Flow cytometry proliferating B cell proportion (%), mean value, BAFF-induced, drug at 1000 nM (IgG1: 33.97) [7] [%] | Binder
1 | 1.9 | 1.64 | 520 | 410 | 575 | 520 | 410 | 0.333 | 0.179 | 2.8 | – | – | – | B746201 (other, Fusion protein of anifrolumab, TACI-19-16 and BCMA-ECD-2 (C-terminus of the heavy chain)) heavy: EVQLVQSGAEVKKPGESLKISCKGSGYIFTNYWIAWVRQMPGKGLESMGIIYPGDSDIRYSPSFQGQVTISADKSITTAYLQWSSLKASDTAMYYCARHDIEGFDYWGRGTLVTVSSASTKGPSVFPLAPSSKSTSGGTAALGCLVKDYFPEPVTVSWNSGALTSGVHTFPAVLQSSGLYSLSSVVTVPSSSLGTQTYICNVNHKPSNTKVDKRVEPKSCDKTHTCPPCPAPEFEGGPSVFLFPPKPKDTLMISRTPEVTCVVVDVSHEDPEVKFNWYVDGVEVHNAKTKPREEQYNSTYRVVSVLTVLHQDWLNGKEYKCKVSNKALPASIEKTISKAKGQPREPQVYTLPPSRDELTKNQVSLTCLVKGFYPSDIAVEWESNGQPENNYKTTPPVLDSDGSFFLYSKLTVDKSRWQQGNVFSCSVMHEALHNHYTQKSLSLSPGKGGGGSGGGGSGGGGSMLQMAGQCSQNEYFDSLLHACIPCQLRCSSNTPPLTCQRYCSTSCREEQGEFYDHLLRDCISCASICGQHPKQCAAFCE light: EIVLTQSPGTLSLSPGERATLSCRASQSVSSSFFAWYQQKPGQAPRLLIYGASSRATGIPDRLSGSGSGTDFTLTITRLEPEDFAVYYCQQYDSSAITFGQGTRLEIKRTVAAPSVFIFPPSDEQLKSGTASVVCLLNNFYPREAKVQWKVDNALQSGNSQESVTEQDSKDSTYSLSSTLTLSKADYEKHKVYACEVTHQGLSSPVTKSFNRGEC
2 | 6.21 | 1.63 | 426 | 438 | 434 | 426 | 438 | 0.333 | 0.182 | 2.85 | 20.4 | 24.3 | 15 | B805201 (other, Fusion protein of anifrolumab and TACI-19-16 (C-terminus of the heavy chain); also called B80521) heavy: EVQLVQSGAEVKKPGESLKISCKGSGYIFTNYWIAWVRQMPGKGLESMGIIYPGDSDIRYSPSFQGQVTISADKSITTAYLQWSSLKASDTAMYYCARHDIEGFDYWGRGTLVTVSSASTKGPSVFPLAPSSKSTSGGTAALGCLVKDYFPEPVTVSWNSGALTSGVHTFPAVLQSSGLYSLSSVVTVPSSSLGTQTYICNVNHKPSNTKVDKRVEPKSCDKTHTCPPCPAPEFEGGPSVFLFPPKPKDTLMISRTPEVTCVVVDVSHEDPEVKFNWYVDGVEVHNAKTKPREEQYNSTYRVVSVLTVLHQDWLNGKEYKCKVSNKALPASIEKTISKAKGQPREPQVYTLPPSRDELTKNQVSLTCLVKGFYPSDIAVEWESNGQPENNYKTTPPVLDSDGSFFLYSKLTVDKSRWQQGNVFSCSVMHEALHNHYTQKSLSLSPGKGGGGSGGGGSGGGGSSTSCREEQGEFYDHLLRDCISCASICGQHPKQCAAFCE light: EIVLTQSPGTLSLSPGERATLSCRASQSVSSSFFAWYQQKPGQAPRLLIYGASSRATGIPDRLSGSGSGTDFTLTITRLEPEDFAVYYCQQYDSSAITFGQGTRLEIKRTVAAPSVFIFPPSDEQLKSGTASVVCLLNNFYPREAKVQWKVDNALQSGNSQESVTEQDSKDSTYSLSSTLTLSKADYEKHKVYACEVTHQGLSSPVTKSFNRGEC
